Substrate in series [1]: Nc1ncnc2c1ncn2[C@@H]1O[C@H](COP(=O)(O)OP(=O)(O)OP(=O)(O)O)[C@@H](O)[C@H]1O
Briefly: Pi release, malachite green assay. It counts as biochemical, Trypanosoma brucei. The conditions noted are these: pH 8.0, 37°C, 6 mM MgCl2, 50 mM NaCl, 40 mM Hepes, 10 min. An excerpt: (§1) Pi release, malachite green assay on TbNH2

Substrate in series [2]: Nc1ncnc2c1ncn2[C@@H]1O[C@H](COP(=O)(O)OP(=O)(O)O)[C@@H](O)[C@H]1O
Briefly: Pi release, malachite green assay. It counts as biochemical, Trypanosoma brucei. The conditions noted are these: pH 8.0, 37°C, 6 mM MgCl2, 50 mM NaCl, 40 mM Hepes, 10 min.
Excerpt: as §1

We go through one protein from paper PMC6522730, “NUDIX hydrolases with inorganic polyphosphate exo- and endopolyphosphatase activities in the glycosome, cytosol and nucleus of Trypanosoma brucei” (Bioscience Reports, 2019).

B1: TbNH2 (Trypanosoma brucei brucei TREU927) (protein)
chain: MYRKNVCVVIFNEDLNFLACQRIHEDKFQFVQGGVEEGDADIIRAAYREVHEEVGLFPEDLRLIGEIMPPSGDPHEFRYILHEGANLRHFGYVGQQQRLFLFYTPSSTIQRVRLVPPKGSVAKQEFSHVEWLPIDEIIERCPKEKQHIFVAVSKVAIPMAKAFLKTRSSI
notes: full-length ORF in pET32 Ek/LIC (N-terminal thioredoxin/His tag), E. coli BL21-CodonPlus (DE3), nickel column
One may read the Km as the substrate concentration at which the rate is half of its maximum. A word on the Vmax: it is the top rate of the reaction or transport when substrate is in excess. By kcat/Km is commonly meant the second-order rate constant that governs catalysis at low substrate concentration. Take B1: in series [1], the Km was 78.1 ± 16.3 µM, the Vmax came to 0.0102 µmol/min/mg and the kcat/Km was found to be 290000 M⁻¹ s⁻¹. In series [2], the Km is reported as 46.5 ± 6.3 µM, the Vmax was determined as 0.0056 µmol/min/mg and the kcat/Km came out at 270000 M⁻¹ s⁻¹.
